Paper PMC3814787, “Potential Regulatory Interactions of Escherichia coli RraA Protein with DEAD-box Helicases* ^([image sbox.jpg])” (The Journal of Biological Chemistry, 2013)
Each block holds one binder with its values, some of them ahead of it.

B1: DEAD-box helicase SrmB (enzyme, Escherichia coli, UniProt P21507 1-444, looked up)
chain: MTVTTFSELELDESLLEALQDKGFTRPTAIQAAAIPPALDGRDVLGSAPTGTGKTAAYLLPALQHLLDFPRKKSGPPRILILTPTRELAMQVSDHARELAKHTHLDIATITGGVAYMNHAEVFSENQDIVVATTGRLLQYIKEENFDCRAVETLILDEADRMLDMGFAQDIEHIAGETRWRKQTLLFSATLEGDAIQDFAERLLEDPVEVSANPSTRERKKIHQWYYRADDLEHKTALLVHLLKQPEATRSIVFVRKRERVHELANWLREAGINNCYLEGEMVQGKRNEAIKRLTEGRVNVLVATDVAARGIDIPDVSHVFNFDMPRSGDTYLHRIGRTARAGRKGTAISLVEAHDHLLLGKVGRYIEEPIKARVIDELRPKTRAPSEKQTGKPSKKVLAKRAEKKKAKEKEKPRVKKRHRDTKNIGKRRKPSGTGVPPQTTEE
notes: SrmB, DEAD-box RNA helicase, Escherichia coli; monomer of 50 kDa as printed; only residues 219-388 (C-terminal RecA-like domain) are resolved in the crystal; source: E. coli BL21(DE3), purified (ammonium sulfate precipitation, heparin column)
B3: CsdAΔ (truncated CsdA, residues 1 to 443) (domain or fragment, Escherichia coli, UniProt P0A9P6 1-443, looked up)
chain: MAEFETTFADLGLKAPILEALNDLGYEKPSPIQAECIPHLLNGRDVLGMAQTGSGKTAAFSLPLLQNLDPELKAPQILVLAPTRELAVQVAEAMTDFSKHMRGVNVVALYGGQRYDVQLRALRQGPQIVVGTPGRLLDHLKRGTLDLSKLSGLVLDEADEMLRMGFIEDVETIMAQIPEGHQTALFSATMPEAIRRITRRFMKEPQEVRIQSSVTTRPDISQSYWTVWGMRKNEALVRFLEAEDFDAAIIFVRTKNATLEVAEALERNGYNSAALNGDMNQALREQTLERLKDGRLDILIATDVAARGLDVERISLVVNYDIPMDSESYVHRIGRTGRAGRAGRALLFVENRERRLLRNIERTMKLTIPEVELPNAELLGKRRLEKFAAKVQQQLESSDLDQYRALLSKIQPTAEGEELDLETLAAALLKMAQGERTLIVPPD
notes: CsdA (DeaD), DEAD-box RNA helicase, Escherichia coli, residues 1 to 443, without the C-terminal extension; Vector pROEX-HT, gift of M. Dreyfus and T. Bizebard; also called CsdA (DeaD); source: E. coli BL21(DE3), purified (HisTrap FF)
B4: Regulator of ribonuclease activity A (RraA) (natural protein, Escherichia coli)
chain: MKYDTSELCDIYQEDVNVVEPLFSNFGGRASFGGQIITVKCFEDNGLLYDLLEQNGRGRVLVVDGGGSVRRALVDAELARLAVQNEWEGLVIYGAVRQVDDLEELDIGIQAMAAIPVGAAGEGIGESDVRVNFGGVTFFSGDHLYADNTGIILSEDPLDIE
notes: RraA, regulator of ribonuclease activity A, Escherichia coli; ring-shaped homotrimer (52 kDa); residues 2-159 modelled in the crystal; Trimer at 150 mM NaCl; about 100 kDa (hexamer) at 300 mM NaCl

Key:
[1] = biological target: B4; assay: SAXS; SrmB and RraA mixed at a 1:3 molar ratio; 150 mM NaCl, 20 mM HEPES pH 7.0, 5% glycerol, 2 mM DTT; 15 °C; 5 to 55 μM; ab initio envelope; details: both partners purified
[2] = biological target: B4; assay: AUC; sedimentation velocity, absorbance at 280 nm, 20 °C; 150 mM NaCl, 50 mM HEPES pH 7.5, 10% glycerol; mixtures at 1:1 helicase:RraA trimer, about 10 μM; details: both partners purified
[3] = biological target: the molecule itself; assay: AUC; sedimentation velocity, 20 °C; 300 mM NaCl, 50 mM HEPES pH 7.5, 10% glycerol, 2 mM tris(2-carboxyethyl)phosphine; experiments with CsdAΔ; about 10 μM
DEAD-box helicase SrmB = biological target: B1; assay: AUC; sedimentation velocity, absorbance at 280 nm, 20 °C; 150 mM NaCl, 50 mM HEPES pH 7.5, 10% glycerol; mixtures at 1:1 helicase:RraA trimer, about 10 μM; details: both partners purified
DEAD-box helicase DbpA = biological target: T1, DEAD-box helicase DbpA (Escherichia coli, UniProt P21693 1-457); assay: as above; details: both partners purified
T1 construct: DbpA, DEAD-box RNA helicase, Escherichia coli; monomer of 49 kDa as printed; source: E. coli BL21(DE3), purified (ammonium sulfate precipitation, heparin column)
T1 sequence (looked up): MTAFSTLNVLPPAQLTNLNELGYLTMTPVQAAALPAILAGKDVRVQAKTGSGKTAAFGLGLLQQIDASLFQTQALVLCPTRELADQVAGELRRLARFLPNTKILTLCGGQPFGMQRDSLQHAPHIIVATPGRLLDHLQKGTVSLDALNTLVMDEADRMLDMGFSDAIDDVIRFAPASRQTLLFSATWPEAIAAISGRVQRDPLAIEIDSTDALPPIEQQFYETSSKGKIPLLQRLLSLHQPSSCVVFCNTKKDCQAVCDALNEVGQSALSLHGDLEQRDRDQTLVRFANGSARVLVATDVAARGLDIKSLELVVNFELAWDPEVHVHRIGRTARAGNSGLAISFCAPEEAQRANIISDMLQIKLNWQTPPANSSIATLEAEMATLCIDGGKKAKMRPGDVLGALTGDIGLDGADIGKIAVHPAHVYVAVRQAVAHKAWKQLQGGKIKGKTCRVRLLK

[4] = biological target: the molecule itself; assay: as above
[5] = biological target: the molecule itself; assay: crystal structure; RraA and RhlB(398-421) mixed at 1:20; 74.8 μM RraA, 1.48 mM peptide, 423 mM NaCl, 99 mM (NH4)2SO4; hanging drop, 16 °C; 100 mM sodium citrate pH 5.4, 32% methylpentanediol, 200 mM ammonium acetate; 2.8 Å
[6] = biological target: B3; assay: native gel or EMSA; 5% native polyacrylamide gel, Tris glycine running buffer with 1 mM DTT, 4 °C; helicase 10 μM and RraA 30 μM (2.5 and 7.5 μM for the mutants of Figure 3); bands of the complex cut out and analysed by SDS-PAGE; details: both partners purified
DEAD-box helicase RhlE = biological target: T2, DEAD-box helicase RhlE (Escherichia coli, UniProt P25888 1-454); assay: as above; details: both partners purified
T2 construct: RhlE, DEAD-box RNA helicase, Escherichia coli; source: E. coli BL21(DE3), purified (ammonium sulfate precipitation, heparin column)
T2 sequence (looked up): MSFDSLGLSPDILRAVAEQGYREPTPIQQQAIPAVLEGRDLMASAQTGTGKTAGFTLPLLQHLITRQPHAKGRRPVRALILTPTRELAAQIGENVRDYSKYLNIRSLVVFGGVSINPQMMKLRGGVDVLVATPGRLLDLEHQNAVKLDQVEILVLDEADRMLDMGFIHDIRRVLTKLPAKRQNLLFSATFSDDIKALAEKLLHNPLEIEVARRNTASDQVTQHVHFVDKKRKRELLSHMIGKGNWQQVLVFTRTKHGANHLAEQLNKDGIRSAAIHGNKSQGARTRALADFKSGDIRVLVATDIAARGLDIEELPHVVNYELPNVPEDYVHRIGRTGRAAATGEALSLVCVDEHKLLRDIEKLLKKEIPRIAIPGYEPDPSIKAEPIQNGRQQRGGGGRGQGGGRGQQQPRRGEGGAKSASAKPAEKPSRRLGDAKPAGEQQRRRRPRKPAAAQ

Binder: B1
- stoichiometry N [1]: 1 SrmB per RraA trimer
- stoichiometry N [2]: 1 helicase monomer per RraA trimer

- stoichiometry N [2]: 1 helicase monomer per RraA trimer
B2: DEAD-box helicase RhlB (enzyme, Escherichia coli, UniProt P0A8J8 1-421, looked up)
chain: MSKTHLTEQKFSDFALHPKVVEALEKKGFHNCTPIQALALPLTLAGRDVAGQAQTGTGKTMAFLTSTFHYLLSHPAIADRKVNQPRALIMAPTRELAVQIHADAEPLAEATGLKLGLAYGGDGYDKQLKVLESGVDILIGTTGRLIDYAKQNHINLGAIQVVVLDEADRMYDLGFIKDIRWLFRRMPPANQRLNMLFSATLSYRVRELAFEQMNNAEYIEVEPEQKTGHRIKEELFYPSNEEKMRLLQTLIEEEWPDRAIIFANTKHRCEEIWGHLAADGHRVGLLTGDVAQKKRLRILDEFTRGDLDILVATDVAARGLHIPAVTHVFNYDLPDDCEDYVHRIGRTGRAGASGHSISLACEEYALNLPAIETYIGHSIPVSKYNPDALMTDLPKPLRLTRPRTGNGPRRTGAPRNRRRSG
notes: RhlB, DEAD-box RNA helicase, Escherichia coli; monomer of 47 kDa as printed; The printed mass of 47 kDa fits the whole protein; 'full-length RhlB' is said only of the crystallisation trials

Binder: B3
- stoichiometry N [3]: 2

Binder: B4
- Kd (DEAD-box helicase SrmB): < 10 µM
- binding result (DEAD-box helicase DbpA): binds
- stoichiometry N [4]: 3
- stoichiometry N [5]: 6
- binding result [6]: binds
- binding result (DEAD-box helicase RhlE): binds
